Measured values published in paper PMC10256740.

Experiments:
[1] = target: FLAG-tagged BicD2-Kif1bα tail fusion (mouse) (UniProt Q60575); assay: centrosome recruitment assay with BicD2-kinesin tail fusions (relocalisation in cells, microscopy); N2A cells transfected with FLAG-BicD2-KIF tail fusion and EGFP-tagged RBP (2:3), fixed after 24 h, anti-FLAG staining; read-out log2 of the mean EGFP intensity at the centrosome over the mean intensity in the whole cell
[2] = target: FLAG-tagged BicD2-Kif1c tail fusion (mouse) (UniProt O35071); assay: as above
Sequence of FLAG-tagged BicD2-Kif1c tail fusion (mouse) (O35071 whole entry, the tested form may be a part): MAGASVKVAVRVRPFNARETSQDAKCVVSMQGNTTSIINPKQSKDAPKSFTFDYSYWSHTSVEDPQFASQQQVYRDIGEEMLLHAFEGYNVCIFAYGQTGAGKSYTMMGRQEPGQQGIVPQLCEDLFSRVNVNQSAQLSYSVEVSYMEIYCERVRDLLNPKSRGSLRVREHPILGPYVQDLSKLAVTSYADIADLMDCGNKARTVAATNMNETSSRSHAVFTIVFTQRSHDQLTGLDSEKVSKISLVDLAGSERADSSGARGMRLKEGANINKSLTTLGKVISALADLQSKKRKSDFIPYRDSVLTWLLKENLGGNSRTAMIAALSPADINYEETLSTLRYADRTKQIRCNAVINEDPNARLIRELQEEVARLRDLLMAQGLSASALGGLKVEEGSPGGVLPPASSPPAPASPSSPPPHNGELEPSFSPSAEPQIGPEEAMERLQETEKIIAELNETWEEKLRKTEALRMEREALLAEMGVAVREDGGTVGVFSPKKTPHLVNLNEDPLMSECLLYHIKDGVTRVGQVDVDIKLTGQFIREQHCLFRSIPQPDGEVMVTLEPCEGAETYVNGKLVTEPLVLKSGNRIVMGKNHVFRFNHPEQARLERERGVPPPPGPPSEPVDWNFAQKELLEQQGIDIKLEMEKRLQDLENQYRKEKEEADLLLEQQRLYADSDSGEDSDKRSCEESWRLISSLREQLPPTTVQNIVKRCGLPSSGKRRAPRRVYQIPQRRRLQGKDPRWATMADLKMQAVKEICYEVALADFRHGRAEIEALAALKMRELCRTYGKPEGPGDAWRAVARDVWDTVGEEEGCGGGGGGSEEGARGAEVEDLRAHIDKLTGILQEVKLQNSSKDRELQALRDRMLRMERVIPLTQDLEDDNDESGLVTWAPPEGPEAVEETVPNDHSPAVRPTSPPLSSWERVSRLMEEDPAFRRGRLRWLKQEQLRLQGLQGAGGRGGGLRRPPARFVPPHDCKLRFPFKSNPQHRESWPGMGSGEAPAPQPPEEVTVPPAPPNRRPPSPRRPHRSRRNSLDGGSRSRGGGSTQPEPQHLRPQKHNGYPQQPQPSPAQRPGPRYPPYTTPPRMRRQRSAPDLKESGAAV

Sequence of FLAG-tagged BicD2-Kif1bα tail fusion (mouse) (Q60575 other isoform, or with tags, fused parts or gaps): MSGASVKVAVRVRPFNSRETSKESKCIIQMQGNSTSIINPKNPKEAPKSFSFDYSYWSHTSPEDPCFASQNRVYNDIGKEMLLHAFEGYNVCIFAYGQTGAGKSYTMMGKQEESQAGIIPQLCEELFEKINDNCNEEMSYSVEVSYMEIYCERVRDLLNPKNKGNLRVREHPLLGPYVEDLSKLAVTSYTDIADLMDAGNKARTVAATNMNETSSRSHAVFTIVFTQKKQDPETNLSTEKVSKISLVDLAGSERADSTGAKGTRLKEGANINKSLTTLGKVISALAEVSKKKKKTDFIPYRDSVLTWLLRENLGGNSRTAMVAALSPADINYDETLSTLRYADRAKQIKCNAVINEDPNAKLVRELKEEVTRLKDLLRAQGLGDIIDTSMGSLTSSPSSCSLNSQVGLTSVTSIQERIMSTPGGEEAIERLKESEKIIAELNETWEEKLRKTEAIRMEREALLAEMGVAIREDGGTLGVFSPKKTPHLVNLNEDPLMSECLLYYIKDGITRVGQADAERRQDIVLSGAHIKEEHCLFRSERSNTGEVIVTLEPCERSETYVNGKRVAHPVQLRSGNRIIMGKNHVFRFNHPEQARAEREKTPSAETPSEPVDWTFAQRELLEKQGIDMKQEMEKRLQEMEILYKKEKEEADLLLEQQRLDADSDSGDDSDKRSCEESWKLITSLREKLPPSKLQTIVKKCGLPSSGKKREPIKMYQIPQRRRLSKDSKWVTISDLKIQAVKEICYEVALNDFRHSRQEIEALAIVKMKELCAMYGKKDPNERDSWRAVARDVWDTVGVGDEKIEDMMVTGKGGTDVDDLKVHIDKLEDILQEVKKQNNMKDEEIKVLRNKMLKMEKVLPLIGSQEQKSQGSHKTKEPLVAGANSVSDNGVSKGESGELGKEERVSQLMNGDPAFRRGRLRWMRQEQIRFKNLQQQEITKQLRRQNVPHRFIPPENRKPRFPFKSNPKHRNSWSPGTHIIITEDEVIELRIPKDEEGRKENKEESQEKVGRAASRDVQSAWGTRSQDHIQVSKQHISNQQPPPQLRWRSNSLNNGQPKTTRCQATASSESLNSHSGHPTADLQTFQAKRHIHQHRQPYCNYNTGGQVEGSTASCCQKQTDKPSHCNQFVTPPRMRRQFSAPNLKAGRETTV

log2 mean centrosome recruitment [1]: 1.24 log2 | log2 mean centrosome recruitment [2]: 1.13 log2
B1: EGFP-Tis11d (natural protein)
chain: MSTTLLSPFYDIDFLCKTEKSLANLNLNNMLDKKAVGTPVAAAPSSSFTPGFLRRHSASNLHALAHPVPSPGSCSPKFPGAPNGGGSSCGPAGGGGLASYGQLKEPSGGSGTALVTKESKFRDRSFSENGERSQHLLHLQQQQKGGSGSQINSTRYKTELCRPFEESGTCKYGEKCQFAHGFHELRSLTRHPKYKTELCRTFHTIGFCPYGPRCHFIHNADERRPAPSGGGGASGDLRAFGARDALHLGFAREPRPKLHHSLSFSGFPSGHHQPPGGLESPLLLDSPTSRTPPPPSSSASSCSSSASSCSSASAASTPSGAPTCCATAAAAALLYGPGGAEDLLSPGAPCASCSSSGANNAFAFGPELSSLITPLAIQTHNFAAAAAAAYYRNQQQGLTGPAPPPAQPPAAPAPPSPPFGFQLPRRLSESPVFDAPPSPPDSLSDRDSYLSGSLSSGSLSGSESPSLDPGRRLPIFSRLSISDD
